Laboratory results published in a protein production outcome set (Wang et al. 2014).
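Also: failed if final PepcDB status was selected cloned or expressed and not failed if soluble or beyond.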

Test: label from the status in PepcDB records
In the case of “MAKKTLILYYSWSGETKKMAEKINSEIKDSELKEVKVSEGTFDADMYKTSDIALDQIQGNKDFPEIQLDNIDYNNYDLILIGSPVWSGYPATPIKTLLDQMKNYRGEVASFFTSAGTNHKAYVSHFNEWADGLNVIGVARDDSEVDKWSK”, the protein production is reported as “not failed”. For “MAKKTMGIHHITAIVGHPQENTDFYAGVLGLRLVKQTVNFDDPGTYHLYFGNEGGKPGTIITFFPWAGARQGVIGDGQVGVTSYVVPKGAMAFWEKRLEKFNVPYTKIERFGEQYVEFDDPHGLHLEIVEREEGEANTWTFGEVTPDVAIKGFGGATLLSEQPDKTADLLENIMGLERVGKEGDFVRYRSAGDIGNVIDLKLTPIGRGQMGAGTVHHIAWRANDDEDQLDWQRYIASHGYGVTPVRDRNYFNAIYFREHGEILFEIATDPPGFAHDETQETMGEKLMLPVQYEPHRTQIEQGLLPFEVRELD”, the protein production was “not failed”. For “MAKKVAVLAVNPVNGCGLFQYLEAFFENGISYKVFAVSDTKEIKTNSGMVLIVDDVIANLKGHEDEFDALVFSCGDAVPVFQQYANQPYNVDLMEVIKTFGEKGKMMIGHCAGAMMFDFTGITKGKKVAVHPLAKPAIQNGIATDEKSEIDGNFFTAQDENTIWTMLPKVIEALK”, the protein production was “not failed”. With “MAKLSPTTRIFALVIKEILTLFKDPKGRIVLIAPPLLQLLIFSFAATMEIKNISIGILNQDFGKHGYEVIQRFIGSPTFSKVFFIQKQSDIKPIIDNQEAMVVMTIPQDFSRKIESNSQANIQLILDGRRSNATQIVNGYISSIIENYNQEIQKTHGAIMTPPVMVTRSWFNENLLYLWFTVPSLVCILSMLISLVVTALSVARERELGTFDQLLVSPLTPYEILIGKTIPAIIIGLAEGLLMWVAAVWLFDVPFYGSPLLMVYILFIFIMSTVGVGLFISSMCKTQQQAILGVFIYMVPVVTLSGYASPVENMPEWLQDLTWFNPLKFTLIAVIGIFLKGMSALEVFITTWPLLLVGAVTLFIAGWFFKQRME” the protein production was “failed”. In the case of “MAKQDVIELEGTVLDTLPNAMFKVELENGHEILAHVSGKIRMNYIRILPGDKVTVEMSPYDLTRGRITYRYK”, the protein production is reported as “failed”. In the case of “MAKRCALTFKGPMIGNHVSHANNKNKRRLLPNLRSIKIQLDDGTTKRIKVAASTLRTMRKGALEHHHHHH”, the protein production is reported as “not failed”. With “MAKRIFLFILTNILVLTTIGIVLSVLSSVTGVGTYFTADGGIDPMALLVFSLVVGFVGSFTSLAISRWMAKTMMGVRVLNPKKHSLSYEEQQLVDRVHRLSRSAGLTKMPEVGIYRSPEVNAFATGPSKRRSLVAVSSGLLEQMDDAAVEGVLAHEVAHITNGDMVTMTLLQGIVNTFVVFLSRIAAWIASRFVKEDLAPIVHFIAMIIFQIVFSILGSLVVFAYSRHREFHADRGGADLAGKDKMIHALRTLKSYSSRILEDDQTAVQTLKINGKKRSSLFSTHPDLDERIRRLEAK” the protein production was “failed”. In the case of “MAKSKSSQGASGARRKPAPSLYQHISSFKPQFSTRVDDVLHFSKTLTWRSEIIPDKSKGTLTTSLLYSQGSDIYEIDTTLPLKTFYDDDDDDDNDDDDEEGNGKTKSAATPNPEYGDAFQDVEGKPLRPKWIYQGETVAKMQYLESSDDSTAIAMSKNGSLAWFRDEIKVPVHIVQEMMGPATRYSSIHSLTRPGSLAVSDFDVSTNMDTVVKSQSNGYEEDSILKIIDNSDRPGDILRTVHVPGTNVAHSVRFFNNHLFASCSDDNILRFWDTRTADKPLWTLSEPKNGRLTSFDSSQVTENLFVTGFSTGVIKLWDARAVQLATTDLTHRQNGEEPIQNEIAKLFHSGGDSVVDILFSQTSATEFVTVGGTGNVYHWDMEYSFSRNDDDNEDEVRVAAPEELQGQCLKFFHTGGTRRSSNQFGKRNTVALHPVINDFVGTVDSDSLVTAYKPFLASDFIGRGYDD”, the protein production is reported as “failed”. In the case of “MAKSWCTVLERPATRAARSLAIKRSEKGEMLVSGLPYLSAVDDVTLMLRDGDLMGSFVVEGINAETVDSFHTVELCNAFSRFIAQQRSDVAYYVHRISVETRPTMPPVGGHPFNEEIDRRWQGYLQTVGLRDRVTVVTLVIRPPRKTTKFLSLFGGRDVHSRHEVEARALRLDQMINTCMVGVGEAGPSRLTVSDGRWLGLLRTLIDGSGGSLIPGTKFLPVADLLASSQITFQGPVFECEGTDPARRRFGTIVSVKDYPAETYPGILDRLNLPYNTVVTQSFTPIDPISAQGKIARVRKQMRAAEDAAISLMAQLEEAEDDVASGRVIFGDHHCSVAVFCDSLKELDGAMAYVTRAMQDAGAAIVRENFSSRVVYFAQHPGNFAYRTRPAMISSQNFAQLCAMHGQSKGSPPDKCPWGDAVTIFPTARGETFRFNFHLPGKPGQRTVGHTLVLGQTGSGKTLGTAFLISQAQRLGARTILFDKDNGFEMAVRAMGGCYSAVRMGDETGFNPMRAEADSRGAAWLMDWLAALAENDGGKLNPVQIQALSDAVQANTTADPRLQNLEQFRSQLRATDDDGDLYNRLGRWDETGQFGWLFGGKGLDPLAFDNRLTAFDLTEIFDNDVVRTAWLSYVFRRVERLVEDEHPTLLVLDEAWKLLDNPYFEARLKDWMLTMRKKNVAVVLLTQRVSHIKNSAAGDAILESAVTRLVYTSSFNTAAELAPLHLTPTESAFLQMSNVDNHLVLLKSGSDSVVLDFDLVAIGKGIDVLGGGRGQKAIAGWRDRPDFQMEMLHLEHHHHHH”, the protein production is reported as “failed”. With “MAKVVKLEPISRETTVNTNDNLLSALLDSELHVLKECGGRGMCATCHVYIKEGMESLSPINKREQRTLEVITTANATSRLACQARVLGPGVVVELPSG” the protein production was “failed”. For “MALAFDEFGRPFIILREQDQKTRLKGIDAQKANISAGKAVARILRSSLGPKGMEKKCFKDLTEMSPYVSFFLLNLISLRSIPMALALNSGLQPIETLSAVKSQQIKRRTFHSTGLIATM”, the protein production was “failed”. For “MALCGRPARQRSSAGQRYLAVAPARCDHWSPPSVRRVPVGRVGFYPAPVINRDAGGRASMTSQRGFWDRMAERYAARPIKDVAAYEAMLADAAGRLSPSDRVLEIGCGTGGTAIRLAPGVAQWTATDLSPEMVRIASAKPAPPNLSFVVADADLSTGEPPYDAVCAFLILHLVDDIRTTLSAIRDWLKPGGLLLSKTYCIGDMNPALRWGVIPVLQRIGWVPPIKSLMSQQLRAAIAEAGFEIEASRTFGSNSHAHYIVARKPA”, the protein production was “failed”. For “MALDNAKTSQKLQSLAELDGKAPSHRNLNVQTWSTAEGAKVLFVEARELPMFDLRLIFAAGSSQDGNAPGVALLTNAMLNEGVAGKDVGAIAQGFEGLGADFGNGAYKDMAVASLRSLSAVDKREPALKLFAEVVGKPTFPADSLARIKNQMLAGFEYQKQNPGKLASLELMKRLYGTHPYAHASDGDAKSIPPITLAQLKAFHAKAYAAGNVVIALVGDLSRSDAEAIAAQVSAALPKGPALAKIEQPAEPKASIGHIEFPSSQTSLMLAQLGIDRDDPDYAAVSLGNQILGGGGFGTRLMSEVREKRGLTYGVYSGFTPMQARGPFMINLQTRAEMSEGTLKLVQDVFAEYLKNGPTQKELDDAKRELAGSFPLSTASNADIVGQLGAMGFYNLPLSYLEDFMRQSQELTVEQVKAAMNKHLNVDKMVIVSAGPTVAQKPLEHHHHHH”, the protein production was “failed”. In the case of “MALDRIEAMRAFCRIVELGSFTRAADSLGVASTTLSGQIQVLERLLDIRLLHRSTRKVHPTNEGLAYYQRARKVIEDIDDLEASVSISRAVVKGRVAVEMPTPVGIHLVIPALHGFTERYPHIHLDIGCSERVVGLMQEGIDCAIRGGDIADQDLIARRVGQMRFCLCAAPAYLDAHPAITHPAQLARHRHLGFRFPGTGKRFVATLRKQRDSHPLDHPPHVYFNNGTAVTAGAAAGLGIAALPRAEVRHLLEAGALREILPDWTLTSMPMSVVYPQTHQLSARVQVFVQWVAELFEGDGLWKDA”, the protein production is reported as “failed”. For “MALGHRCRRFGTDKITSRPLRRQPQENPMNIKQLITAALIASAAFATQAAPQKPVSAAQTAQHSAVWIDVRSEQEFSEGHLHNAVNIPVDQIVRRIYEAAPDKDTPVNLYCRSGRRAEAALQELKKAGYTNVANHGGYEDLLKKGMK”, the protein production was “failed”. In the case of “MALIVQKFGGTSVGTVERIEQVAEKVKKFREAGDDVVVVVSAMSGETNRLIGLANQIMEQPVPRELDVMVSTGEQVTIALLSMALIKRGVPAVSYTGNQVRILTDSAHTKARILHIDDTHIRADLKAGRVVVVAGFQGVDGNGNITTLGRGGSDTTGVALAAALKADECQIYTDVDGVYTTDPRVVPQARRLDKITFEEMLEMASLGSKVLQIRAVEFAGKYNVPLRVLHSFQEGPGTLITIDDEEESMEQPIISGIAFNRDEAKLTIRGVPDTPGVAFKILGPISAANVEVDMIVQNVAHDNTTDFTFTVHRNDYLNALEILKQTAANIGAREAIGDTNIAKVSIVGVGMRSHAGVASRMFEALAKESINIQMISTSEIKVSVVIEEKYLELAVRALHTAFELDAPARQG”, the protein production is reported as “failed”. With “MALKDYALEKEKVKKFLQEFYQDDELGKKQFKYGNQLVRLAHREQVALYVDLDDVAEDDPELVDSICENARRYAKLFADAVQELLPQYKEREVVNKDVLDVYIEHRLMMEQRSRDPGMVRSPQNQYPAELMRRFELYFQGPSSNKPRVIREVRADSVGKLVTVRGIVTRVSEVKPKMVVATYTCDQCGAETYQPIQSPTFMPLIMCPSQECQTNRSGGRLYLQTRGSRFIKFQEMKMQEHSDQVPVGNIPRSITVLVEGENTRIAQPGDHVSVTGIFLPILRTGFRQVVQGLLSETYLEAHRIVKMNKSEDDESGAGELTREELRQIAEEDFYEKLAASIAPEIYG” the protein production was “failed”. For “MALKLGVIGTGAIGQDHIRRCSKTLVGSQVVAVTDINLEQAANVVRDLGIGAEVYADGHALIAAPDVEAVLVCSWGPSHEEYVLAAIAAGKPVFCEKPLAVTAEGCRHIVEAEIASGRRLVQVGFMRPYDQGYRALKSVIDSGQIGEPLMLHCAHRNPRVGENYKTDMAITDTLIHELNVLRWLLNDDYVSVQVVFPRKSGKALAHMKDPQIVMLETARGTRIDVEVFVNCQYGYDIQCEVVGESGIARLPEPSQVQLRREAKLSNAILMDWKDRFIAAYDVELQDFIDGVKAGTIYGPSAWDGYAAAVAADACVLAQNNGAVVPITLAMRPAFYA”, the protein production was “failed”. With “MALKYPSGKEYRGNKPNAARRPAADYANRGMTLEDDLNATNEYYRERGIAVIHKKPTPVQIVRVDYPKRSAAVITEAYFRQASTTDYNGVYRGKYIDFEAKETKNKTAFPLKNFHAHQIRHMEQVVAHGGICFAILRFSLLNETYLLDASHLIAWWNKQEAGGRKSIPKQEIERHGHSIPLGYQPRIDYISVVDNVYFTR” the protein production was “not failed”. With “MALNNFLTFQLLLLLLRVSSESPWIVAGDVSRIPINFLELAKSPEVFDSMVRIRRKIHENPELGYEEFETSKFIRSELDLIGVKYRFPVAITGIIGYIGTGEPPFVALRADMDALPIQEAVEWEHKSKNPGKMHACGHDGHVAMLLGAAKILQQHRQHLQGTVVLIFQPAEEGLSGAKMMREEGALKNVEAIFGIHLSPRTPFGKAASLAGSFMAGAGAFEAVITGKGGHAAIPQHTIDPVVAASSIVLSLQHLVSRETDPSDSKVVTVTKVNGGNAFNVIPDSITIGGTLRAFTGFTQLQERIKEIITKQAAVHRCNASVNLAPNGNQPMPPTVNNMDLYKKFKKVVRDLLGQEAFVEAVPEMGSEDFSYFAETIPGHFSLLGMQDETQGYASSHSPHYRINEDVLPYGAAIHATMAVQYLKDKASKGSVSGFHDEL” the protein production was “not failed”. With “MALNVAPVRDTKWLTLEVCRQFQRGTCSRSDEECKFAHPPKSCQVENGRVIACFDSLKGRCSRENCKYLHPPTHLKTQLEINGRNNLIQQKTAAAMLAQQMQFMFPGTPLHPVPTFPVGPAIGTNTAISFAPYLAPVTPGVGLVPTEILPTTPVIVPGSPPVTVPGSTATQKLLRTDKLEVCREFQRGNCARGETDCRFAHPADSTMIDTSDNTVTVCMDYIKGRCMREKCKYFHPPAHLQAKIKAAQHQANQAAVAAQAAAAAATVMAFPPGALHPLPKRQALEKSNGTSAVFNPSVLHYQQALTSAQLQQHAAFIPTVPMMHSATSATVSAATTPATSVPFAATATANQIILK” the protein production was “not failed”.
